These results are taken from patent publication US20260077028A1.

The target of assay [1] is T1, human DEspR (dual endothelin/VEGF signal peptide receptor) (human) (UniProt B0L3A2).
T1 sequence: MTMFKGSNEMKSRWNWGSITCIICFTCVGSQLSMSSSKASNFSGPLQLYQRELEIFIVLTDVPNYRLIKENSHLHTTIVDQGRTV
The experiment in a line: binding to DEspR on intact human cells, triplicate.

Assay [2] addresses DEspR on activated neutrophils (species of the neutrophils not stated for FIG. 6 / FIG. 17C). The experiment in a line: cell-based or functional assay.

Several values for one entry are separate records, joined by “and”; a condition that tells them apart may be missing. Equal values may be shown once.

B1: 6g8 mumab, murine anti-DEspR monoclonal antibody (pan-species reactive anti-Human/Rat/Monkey DEspR mAb), precursor of hu-6g8 (antibody, from a related filing, V domains shown)
VH: EVQLQESGGGLVQPGGSLKLSCAASGFDFSRYWMSWVRQAPGKGLEWIGEINPDSSTINYTPSLKDKFIISRDTAKKTLYLQMSKVRSEDTALYYCARHGRGMDYWSQGTSVTVSS
VL: DIVLTQTNQIMSASVGDRVSVTCKASQNVDSNVAWYQQKPGHSPKALIYSASYRYSRVPDRITGSGSGTDFTLTITNVQSKDLADYFCQQYHSYPLLAFGAGTKLELKR
Usually EC50 stands for the concentration needed to bring the measured effect to its halfway point. Lower therefore signals greater potency. As for B1, the concentration for a half-maximal effect (EC50) in assay [1] was found to be 178 nM. Further, in assay [2], the inhibition of neutrophil (PMN) survival (IC50) was more than 198 nM; the inhibition of survival (IC50), live cells counted by Trypan blue dye exclusion is > 200 nM and > 30 µg/mL.
